Assay results from publication PMC3218020, “Subtype Differences in Pre-Coupling of Muscarinic Acetylcholine Receptors” (PLoS ONE, 2011).

Columns and labels:
[1] = target: G_(s/olf) G-proteins (Chinese hamster (endogenous in CHO))
[2] = target: Gi/o G-proteins (Chinese hamster (endogenous in CHO))
[3] = target: G_(q/11) G-proteins (Chinese hamster (endogenous in CHO))
[4] = target: G-proteins (Chinese hamster (endogenous in CHO))
[5] = target: T1, M2 muscarinic acetylcholine receptor (Homo sapiens, UniProt P08172); assay: radioligand binding, CHO membranes; settings: labelled compound; antagonist; […] °C, pH […]
T1 construct: gene CHRM2; full-length receptor stably expressed in CHO cells, crude membranes
T1 sequence (P08172 1-466): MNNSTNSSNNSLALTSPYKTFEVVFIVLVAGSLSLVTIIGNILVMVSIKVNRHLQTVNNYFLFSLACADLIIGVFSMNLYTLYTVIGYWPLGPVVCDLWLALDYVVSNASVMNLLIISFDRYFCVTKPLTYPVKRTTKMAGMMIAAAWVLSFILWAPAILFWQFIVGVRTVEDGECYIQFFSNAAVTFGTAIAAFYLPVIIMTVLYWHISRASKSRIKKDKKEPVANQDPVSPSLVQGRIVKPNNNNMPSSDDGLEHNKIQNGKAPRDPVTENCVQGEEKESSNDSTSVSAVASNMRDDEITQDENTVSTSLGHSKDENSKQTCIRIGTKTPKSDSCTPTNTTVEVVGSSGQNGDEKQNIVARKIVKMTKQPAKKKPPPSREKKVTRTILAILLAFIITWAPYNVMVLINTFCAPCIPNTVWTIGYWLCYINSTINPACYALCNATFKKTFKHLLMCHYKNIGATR

Work on “human M4 muscarinic acetylcholine receptor (from UniProt P08173 1-479)” yielded an EMAX of carbachol-stimulated [35S]GTPγS binding to G (s/olf) G-proteins via the receptor (scintillation proximity assay, CHO membranes, carbachol 0.1 µM to 1 mM) (fold increase of basal binding) [1] of 2.18, an EMAX of carbachol-stimulated [35S]GTPγS binding to Gi/o G-proteins via the receptor (scintillation proximity assay, CHO membranes, carbachol 0.1 µM to 1 mM) (fold increase of basal binding) [2] of 3.15 and an EMAX of carbachol-stimulated [35S]GTPγS binding to G (q/11) G-proteins via the receptor (scintillation proximity assay, CHO membranes, carbachol 0.1 µM to 1 mM) (fold increase of basal binding) [3] of 1.59.

“human M3 muscarinic acetylcholine receptor (from UniProt P20309 1-590)” gave an EMAX of carbachol-stimulated [35S]GTPγS binding to G (s/olf) G-proteins via the receptor (scintillation proximity assay, CHO membranes, carbachol 0.1 µM to 1 mM) (fold increase of basal binding) [1] of 2.16, an EMAX of carbachol-stimulated [35S]GTPγS binding to Gi/o G-proteins via the receptor (scintillation proximity assay, CHO membranes, carbachol 0.1 µM to 1 mM) (fold increase of basal binding) [2] of 2.16 and an EMAX of carbachol-stimulated [35S]GTPγS binding to G (q/11) G-proteins via the receptor (scintillation proximity assay, CHO membranes, carbachol 0.1 µM to 1 mM) (fold increase of basal binding) [3] of 3.31.

Work on “human M1 muscarinic acetylcholine receptor (from UniProt P11229 1-460)” yielded an EMAX of carbachol-stimulated [35S]GTPγS binding to G (s/olf) G-proteins via the receptor (scintillation proximity assay, CHO membranes, carbachol 0.1 µM to 1 mM) (fold increase of basal binding) [1] of 1.92, an EMAX of carbachol-stimulated [35S]GTPγS binding to Gi/o G-proteins via the receptor (scintillation proximity assay, CHO membranes, carbachol 0.1 µM to 1 mM) (fold increase of basal binding) [2] of 2.01 and an EMAX of carbachol-stimulated [35S]GTPγS binding to G (q/11) G-proteins via the receptor (scintillation proximity assay, CHO membranes, carbachol 0.1 µM to 1 mM) (fold increase of basal binding) [3] of 3.9.

Work on “human M2 muscarinic acetylcholine receptor (from UniProt P08172 1-466)” yielded an EMAX of carbachol-stimulated [35S]GTPγS binding to G (s/olf) G-proteins via the receptor (scintillation proximity assay, CHO membranes, carbachol 0.1 µM to 1 mM) (fold increase of basal binding) [1] of 1.93, an EMAX of carbachol-stimulated [35S]GTPγS binding to Gi/o G-proteins via the receptor (scintillation proximity assay, CHO membranes, carbachol 0.1 µM to 1 mM) (fold increase of basal binding) [2] of 3.44 and an EMAX of carbachol-stimulated [35S]GTPγS binding to G (q/11) G-proteins via the receptor (scintillation proximity assay, CHO membranes, carbachol 0.1 µM to 1 mM) (fold increase of basal binding) [3] of 1.63.

“wild-type human M1 muscarinic receptor (newly prepared CHO cell line) (from UniProt P11229 1-460)” was tested, and the fraction of low-affinity sites (f low) for carbachol in competition with 1 nM [3H]NMS, membranes of the newly prepared CHO cell line [4] was 72 percent.

With `C[N+]1(C)[C@@H]2C[C@@H](OC(=O)[C@H](CO)c3ccccc3)C[C@H]1[C@@H]1O[C@@H]12` [[3H]-N-methylscopolamine] the “radioligand binding, CHO membranes” value [5] was “N-methylscopolamine binding was measured directly in saturation experiments using six concentrations”.
